Assay results reported in PMC9525683, “Structural analysis of human CEACAM1 oligomerization” (Communications Biology, 2022).

Biological target: the molecule itself
Assay: crystal structure; tagless hCEACAM1 IgV at 15 mg/ml; sitting drop, 25 °C; 0.2 M ammonium sulfate, 0.1 M HEPES pH 7.5, 25% w/v PEG 3350; space group C121; 2.2 Å; three molecules in the asymmetric unit

B1: human CEACAM1 IgV domain, wild type (tagless) (domain or fragment)
chain: QLTTESMPFNVAEGKEVLLLVHNLPQQLFGYSWYKGERVDGNRQIVGYAIGTQQATPGPANSGRETIYPNASLLIQNVTQNDTGFYTLQVIKSDLVNEEATGQFHVY
notes: carcinoembryonic antigen-related cell adhesion molecule 1 (CEACAM1), human, N-terminal IgV domain, non-glycosylated; The 15N-labelled form (M9 medium) was used for NMR, the unlabelled form for the crystals and UV spectroscopy; also called hCEACAM1 IgV; hCEACAM1 WT
- binding result: binds
